Results on one molecule are retold here after PMC9135616 (Biophysics and Physicobiology, 2022).

Holding throughout (test): SEC
(In general: In gel filtration, larger molecules generally elute earlier.)

One assay concerns the target T1, KaiC^F470Y (Synechococcus elongatus PCC 7942, UniProt Q79PF4 1-519, F470Y).
T1 sequence: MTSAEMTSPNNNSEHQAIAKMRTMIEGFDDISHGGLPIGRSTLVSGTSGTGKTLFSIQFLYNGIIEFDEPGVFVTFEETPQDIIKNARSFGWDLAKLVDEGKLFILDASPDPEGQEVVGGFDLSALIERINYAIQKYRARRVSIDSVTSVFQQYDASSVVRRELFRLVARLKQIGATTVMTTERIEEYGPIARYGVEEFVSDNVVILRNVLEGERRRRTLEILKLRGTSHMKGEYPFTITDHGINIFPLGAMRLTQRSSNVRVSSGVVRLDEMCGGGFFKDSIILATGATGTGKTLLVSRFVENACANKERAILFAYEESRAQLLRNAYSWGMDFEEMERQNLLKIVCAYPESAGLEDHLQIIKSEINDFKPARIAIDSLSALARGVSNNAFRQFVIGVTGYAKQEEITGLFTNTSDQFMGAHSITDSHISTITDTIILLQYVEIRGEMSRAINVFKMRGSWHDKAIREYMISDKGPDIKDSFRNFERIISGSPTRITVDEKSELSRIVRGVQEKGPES

Another assay concerns the target T2, KaiC^C306A (Synechococcus elongatus PCC 7942, UniProt Q79PF4 1-519, C306A).
T2 sequence: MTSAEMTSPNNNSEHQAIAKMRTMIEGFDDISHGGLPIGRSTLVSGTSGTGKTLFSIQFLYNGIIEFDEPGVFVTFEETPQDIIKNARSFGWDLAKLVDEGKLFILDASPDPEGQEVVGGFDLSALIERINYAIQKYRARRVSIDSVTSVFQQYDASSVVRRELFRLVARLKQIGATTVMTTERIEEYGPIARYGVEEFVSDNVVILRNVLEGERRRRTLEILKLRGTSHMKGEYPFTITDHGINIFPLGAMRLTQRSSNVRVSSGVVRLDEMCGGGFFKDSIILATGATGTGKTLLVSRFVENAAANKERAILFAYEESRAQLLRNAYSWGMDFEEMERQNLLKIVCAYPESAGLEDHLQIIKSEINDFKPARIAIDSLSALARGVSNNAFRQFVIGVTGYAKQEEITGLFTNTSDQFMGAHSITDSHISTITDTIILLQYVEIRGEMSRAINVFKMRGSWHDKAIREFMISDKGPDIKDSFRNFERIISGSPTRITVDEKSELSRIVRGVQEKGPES

In assay [1] the target is T3, KaiC-pSpT-mimicking S431D/T432E KaiC mutant (Synechococcus elongatus PCC 7942, UniProt Q79PF4 1-519, S431D | T432E).
T3 sequence: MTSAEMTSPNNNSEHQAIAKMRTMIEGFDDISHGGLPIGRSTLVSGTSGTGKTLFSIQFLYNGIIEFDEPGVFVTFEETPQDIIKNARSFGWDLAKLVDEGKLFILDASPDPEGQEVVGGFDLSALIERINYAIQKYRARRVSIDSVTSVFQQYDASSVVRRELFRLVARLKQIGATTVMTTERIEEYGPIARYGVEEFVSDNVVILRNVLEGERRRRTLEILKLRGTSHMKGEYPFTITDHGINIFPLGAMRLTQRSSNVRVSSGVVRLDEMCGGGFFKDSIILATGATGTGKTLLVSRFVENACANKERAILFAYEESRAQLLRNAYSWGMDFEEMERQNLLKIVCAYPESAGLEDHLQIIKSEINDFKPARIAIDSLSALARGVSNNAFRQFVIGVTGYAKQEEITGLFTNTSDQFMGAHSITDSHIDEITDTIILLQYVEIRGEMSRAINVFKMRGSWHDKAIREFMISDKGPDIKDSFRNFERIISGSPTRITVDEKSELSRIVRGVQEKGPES

The target in another assay is T4, wild-type KaiC (Synechococcus elongatus PCC 7942, UniProt Q79PF4 1-519).
T4 sequence: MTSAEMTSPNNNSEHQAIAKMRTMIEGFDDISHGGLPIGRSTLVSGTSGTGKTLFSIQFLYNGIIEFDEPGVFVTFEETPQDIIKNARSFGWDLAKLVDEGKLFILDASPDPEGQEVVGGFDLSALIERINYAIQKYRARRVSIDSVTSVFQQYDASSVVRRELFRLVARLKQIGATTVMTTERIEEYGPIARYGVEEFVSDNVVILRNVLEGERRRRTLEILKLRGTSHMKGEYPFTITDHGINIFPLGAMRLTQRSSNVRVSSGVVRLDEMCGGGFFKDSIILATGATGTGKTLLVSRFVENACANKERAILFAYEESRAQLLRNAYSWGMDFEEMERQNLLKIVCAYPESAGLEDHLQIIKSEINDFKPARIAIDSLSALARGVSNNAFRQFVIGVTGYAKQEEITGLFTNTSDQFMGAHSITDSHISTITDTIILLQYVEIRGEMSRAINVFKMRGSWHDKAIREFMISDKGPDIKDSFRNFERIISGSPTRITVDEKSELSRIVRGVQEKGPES

The next assay has as its target T5, KaiC^S157P (Synechococcus elongatus PCC 7942, UniProt Q79PF4 1-519, S157P).
T5 sequence: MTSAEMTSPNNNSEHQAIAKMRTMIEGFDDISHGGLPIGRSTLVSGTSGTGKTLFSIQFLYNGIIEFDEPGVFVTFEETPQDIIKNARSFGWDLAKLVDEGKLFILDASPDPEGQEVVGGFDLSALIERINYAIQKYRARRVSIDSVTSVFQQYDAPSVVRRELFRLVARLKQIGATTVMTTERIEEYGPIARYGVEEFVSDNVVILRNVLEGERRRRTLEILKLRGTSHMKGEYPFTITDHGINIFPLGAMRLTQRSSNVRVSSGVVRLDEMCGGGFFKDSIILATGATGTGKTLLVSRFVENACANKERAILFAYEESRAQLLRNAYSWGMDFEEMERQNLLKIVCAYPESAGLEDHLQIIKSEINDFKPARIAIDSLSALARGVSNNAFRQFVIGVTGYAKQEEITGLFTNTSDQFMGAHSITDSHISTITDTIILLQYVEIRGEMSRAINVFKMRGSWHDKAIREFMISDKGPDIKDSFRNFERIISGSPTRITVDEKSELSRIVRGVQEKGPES

B1: KaiB (natural protein)
chain: MSPRKTYILKLYVAGNTPNSVRALKTLKNILEVEFQGVYALKVIDVLKNPQLAEEDKILATPTLAKVLPLPVRRIIGDLSDREKVLIGLDLLYGELQDSDDF
A word on the koff: it is the first-order rate constant of dissociation. Low values mean slow dissociation, high ones fast dissociation. For the molecule B1, the binding result in the assay with KaiC^F470Y, in the assay with KaiC^C306A and with KaiC^S157P was “binds” in each case. In addition, the koff in assay [1] is 1.56e-06 s⁻¹; in the assay with wild-type KaiC it was 2.39e-05 s⁻¹.
